Laboratory results reported in IntAct's records for PubMed 31515488.

B1: Tuftelin-interacting protein 11 (Homo sapiens), Q9UBB9 (parent)
chain: MSLSHLYRDGEGRIDDDDDERENFEITDWDLQNEFNPNRQRHWQTKEEATYGVWAERDSDDERPSFGGKRARDYSAPVNFISAGLKKGAAEEAELEDSDDEEKPVKQDDFPKDFGPRKLKTGGNFKPSQKGFAGGTKSFMDFGSWERHTKGIGQKLLQKMGYVPGRGLGKNAQGIINPIEAKQRKGKGAVGAYGSERTTQSMQDFPVVDSEEEAEEEFQKELSQWRKDPSGSKKKPKYSYKTVEELKAKGRISKKLTAPQKELSQVKVIDMTGREQKVYYSYSQISHKHNVPDDGLPLQSQQLPQSGKEAKAPGFALPELEHNLQLLIDLTEQEIIQNDRQLQYERDMVVNLFHELEKMTEVLDHEERVISNLSKVLEMVEECERRMQPDCSNPLTLDECARIFETLQDKYYEEYRMSDRVDLAVAIVYPLMKEYFKEWDPLKDCTYGTEIISKWKSLLENDQLLSHGGQDLSADAFHRLIWEVWMPFVRNIVTQWQPRNCDPMVDFLDSWVHIIPVWILDNILDQLIFPKLQKEVENWNPLTDTVPIHSWIHPWLPLMQARLEPLYSPIRSKLSSALQKWHPSDSSAKLILQPWKDVFTPGSWEAFMVKNIVPKLGMCLGELVINPHQQHMDAFYWVIDWEGMISVSSLVGLLEKHFFPKWLQVLCSWLSNSPNYEEITKWYLGWKSMFSDQVLAHPSVKDKFNEALDIMNRAVSSNVGAYMQPGARENIAYLTHTERRKDFQYEAMQERREAENMAQRGIGVAASSVPMNFKDLIETKAEEHNIVFMPVIGKRHEGKQLYTFGRIVIYIDRGVVFVQGEKTWVPTSLQSLIDMAK
B2: Isoform 1 of Zinc finger protein 18 (Homo sapiens), P17022-1 (parent)
chain: MPVDLGQALGLLPSLAKAEDSQFSESDAALQEELSSPETARQLFRQFRYQVMSGPHETLKQLRKLCFQWLQPEVHTKEQILEILMLEQFLTILPGEIQMWVRKQCPGSGEEAVTLVESLKGDPQRLWQWISIQVLGQDILSEKMESPSCQVGEVEPHLEVVPQELGLENSSSGPGELLSHIVKEESDTEAELALAASQPARLEERLIRDQDLGASLLPAAPQEQWRQLDSTQKEQYWDLMLETYGKMVSGAGISHPKSDLTNSIEFGEELAGIYLHVNEKIPRPTCIGDRQENDKENLNLENHRDQELLHASCQASGEVPSQASLRGFFTEDEPGCFGEGENLPEALQNIQDEGTGEQLSPQERISEKQLGQHLPNPHSGEMSTMWLEEKRETSQKGQPRAPMAQKLPTCRECGKTFYRNSQLIFHQRTHTGETYFQCTICKKAFLRSSDFVKHQRTHTGEKPCKCDYCGKGFSDFSGLRHHEKIHTGEKPYKCPICEKSFIQRSNFNRHQRVHTGEKPYKCSHCGKSFSWSSSLDKHQRSHLGKKPFQ
B3: Cyclin-H (Homo sapiens), P51946 (parent)
chain: MYHNSSQKRHWTFSSEEQLARLRADANRKFRCKAVANGKVLPNDPVFLEPHEEMTLCKYYEKRLLEFCSVFKPAMPRSVVGTACMYFKRFYLNNSVMEYHPRIIMLTCAFLACKVDEFNVSSPQFVGNLRESPLGQEKALEQILEYELLLIQQLNFHLIVHNPYRPFEGFLIDLKTRYPILENPEILRKTADDFLNRIALTDAYLLYTPSQIALTAILSSASRAGITMESYLSESLMLKENRTCLSQLLDIMKSMRNLVKKYEPPRSEEVAVLKQKLERCHSAELALNVITKKRKGYEDDDYVSKKSKHEEEEWTDDDLVESL
B4: Break repair meiotic recombinase recruitment factor 1 (Homo sapiens), Q0VDD7 (parent)
chain: MTKRKKLRTSGEGLCPPKPLKNPRLGDFYGDPQSSMLGCLHHPEEPEGKLGPVPSTQQHGEEPGKAVSSSPDEETGSPCRLLRQPEKEPAPLPPSQNSFGRFVPQFAKSRKTVTRKEEMKDEDRGSGAFSLETIAESSAQSPGCQLLVETLGVPLQEATELGDPTQADSARPEQSSQSPVQAVPGSGDSQPDDPPDRGTGLSASQRASQDHLSEQGADDSKPETDRVPGDGGQKEHLPSIDSEGEKPDRGAPQEGGAQRTAGAGLPGGPQEEGDGVPCTPASAPTSGPAPGLGPASWCLEPGSVAQGSPDPQQTPSRMGREGEGTHSSLGCSSLGMVVIADLSTDPTELEERALEVAGPDGQASAISPASPRRKAADGGHRRALPGCTSLTGETTGESGEAGQDGKPPGDVLVGPTASLALAPGSGESMMGAGDSGHASPDTGPCVNQKQEPGPAQEEAELGGQNLERDLEGFRVSPQASVVLEHREIADDPLQEPGAQQGIPDTTSELAGQRDHLPHSADQGTWADSLAVELDFLLDSQIQDALDASDFEAPPEQLFPSGNKPGPCWPGPSSHANGDPVAVAKAQPRTFVGIQASEASRMEDATNVVRGLIVELSNLNRLIMGTHRDLEAFKRLNYRKTKLGGKAPLPYPSKGPGNIPRGDPPWREL
partner: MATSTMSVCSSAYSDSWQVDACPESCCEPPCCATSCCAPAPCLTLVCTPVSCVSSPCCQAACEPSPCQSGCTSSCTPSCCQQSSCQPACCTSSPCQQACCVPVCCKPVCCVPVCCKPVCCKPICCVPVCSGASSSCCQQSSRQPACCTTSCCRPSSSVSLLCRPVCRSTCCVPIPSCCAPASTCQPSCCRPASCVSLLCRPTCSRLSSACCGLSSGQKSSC
B5: Zinc finger protein with KRAB and SCAN domains 4 (Homo sapiens), Q969J2 (parent)
chain: MAREPRKNAALDAQSAEDQTGLLTVKVEKEEASALTAEVRAPCSPARGPERSRQRFRGFRYPEAAGPREALSRLRELCGQWLQPEMHSKEQILELLVLEQFLTILPGNLQSWVREQHPESGEEVVVLLEYLERQLDEPAPQVPVGDQGQELLCCKMALLTQTQGSQSSQCQPMKALFKHESLGSQPLHDRVLQVPGLAQGGCCREDAMVASRLTPGSQGLLKMEDVALTLTPGWTQLDSSQVNLYRDEKQENHSSLVSLGGEIQTKSRDLPPVKKLPEKEHGKICHLREDIAQIPTHAEAGEQEGRLQRKQKNAIGSRRHYCHECGKSFAQSSGLTKHRRIHTGEKPYECEDCGKTFIGSSALVIHQRVHTGEKPYECEECGKVFSHSSNLIKHQRTHTGEKPYECDDCGKTFSQSCSLLEHHKIHTGEKPYQCNMCGKAFRRNSHLLRHQRIHGDKNVQNPEHGESWESQGRTESQWENTEAPVSYKCNECERSFTRNRSLIEHQKIHTGEKPYQCDTCGKGFTRTSYLVQHQRSHVGKKTLSQ

Variants of: B1
Settings: with zmat2_human ZMAT2, Q96NC0

| Variant | effect of a mutation on the interaction |
| --- | --- |
| R8Q | with no effect |
| S688L | with no effect |

Variants of: B1
Settings: with cox5b_human COX5B

| Variant | effect of a mutation on the interaction |
| --- | --- |
| R8Q | with no effect |
| S688L | with no effect |

Variants of: B1
Settings: with txlna_human TXLNA

| Variant | effect of a mutation on the interaction |
| --- | --- |
| R8Q | with no effect |
| S688L | with no effect |

Variants of: B1
Settings: with hook1_human HOOK1, Q9UJC3
hook1_human HOOK1, Q9UJC3, sequence (Q9UJC3 whole entry): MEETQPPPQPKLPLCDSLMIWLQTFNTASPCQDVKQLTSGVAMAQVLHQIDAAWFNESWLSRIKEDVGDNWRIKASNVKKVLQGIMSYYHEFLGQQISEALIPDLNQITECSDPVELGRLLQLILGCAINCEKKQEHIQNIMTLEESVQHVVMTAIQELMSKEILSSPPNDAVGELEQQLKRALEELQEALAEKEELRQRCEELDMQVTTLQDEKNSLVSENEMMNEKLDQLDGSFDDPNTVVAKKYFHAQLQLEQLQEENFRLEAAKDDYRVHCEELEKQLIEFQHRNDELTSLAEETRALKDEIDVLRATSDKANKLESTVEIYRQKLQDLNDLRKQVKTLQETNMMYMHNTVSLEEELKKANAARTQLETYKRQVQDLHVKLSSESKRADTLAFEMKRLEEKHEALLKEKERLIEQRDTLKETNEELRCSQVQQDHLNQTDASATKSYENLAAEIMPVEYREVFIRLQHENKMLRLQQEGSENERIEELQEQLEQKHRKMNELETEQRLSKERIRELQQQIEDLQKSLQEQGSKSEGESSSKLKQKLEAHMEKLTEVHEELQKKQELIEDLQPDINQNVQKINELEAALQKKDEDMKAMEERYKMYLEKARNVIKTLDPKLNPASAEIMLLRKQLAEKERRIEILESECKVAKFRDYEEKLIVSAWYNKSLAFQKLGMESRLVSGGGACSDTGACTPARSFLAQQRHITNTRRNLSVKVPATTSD

| Variant | effect of a mutation on the interaction |
| --- | --- |
| R8Q | with no effect |
| S688L | with no effect |

Variants of: B1
Settings: with tnnt1_human TNNT1, P13805
tnnt1_human TNNT1, P13805, sequence (P13805 whole entry): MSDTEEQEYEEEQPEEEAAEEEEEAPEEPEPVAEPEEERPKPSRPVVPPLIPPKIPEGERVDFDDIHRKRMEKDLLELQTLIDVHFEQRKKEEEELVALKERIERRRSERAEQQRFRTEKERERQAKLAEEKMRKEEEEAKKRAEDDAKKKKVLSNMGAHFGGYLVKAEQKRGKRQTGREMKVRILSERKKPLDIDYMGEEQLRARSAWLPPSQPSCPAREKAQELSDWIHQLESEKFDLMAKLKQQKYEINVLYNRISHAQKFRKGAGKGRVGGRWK

| Variant | effect of a mutation on the interaction |
| --- | --- |
| R8Q | with no effect |
| S688L | with no effect |

Variants of: B1
Settings: with coq8a_human COQ8A

| Variant | effect of a mutation on the interaction |
| --- | --- |
| R8Q | with no effect |
| S688L | with no effect |

Variants of: B1
Settings: with smce1_human SMARCE1, Q969G3
smce1_human SMARCE1, Q969G3, sequence (Q969G3 whole entry): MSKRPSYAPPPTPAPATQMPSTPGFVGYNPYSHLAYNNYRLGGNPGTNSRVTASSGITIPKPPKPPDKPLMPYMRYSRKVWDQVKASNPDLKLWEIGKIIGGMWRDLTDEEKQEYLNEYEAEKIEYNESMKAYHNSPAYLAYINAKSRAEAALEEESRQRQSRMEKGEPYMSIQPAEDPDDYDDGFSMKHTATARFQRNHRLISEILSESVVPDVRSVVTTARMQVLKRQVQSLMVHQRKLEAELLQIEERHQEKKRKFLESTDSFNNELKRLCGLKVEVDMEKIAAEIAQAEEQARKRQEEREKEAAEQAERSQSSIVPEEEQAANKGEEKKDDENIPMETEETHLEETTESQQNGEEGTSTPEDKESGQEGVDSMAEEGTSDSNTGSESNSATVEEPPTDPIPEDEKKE

| Variant | effect of a mutation on the interaction |
| --- | --- |
| R8Q | with no effect |
| S688L | with no effect |

Variants of: B1
Settings: with bmf_human BMF

| Variant | effect of a mutation on the interaction |
| --- | --- |
| R8Q | with no effect |
| S688L | with no effect |

Variants of: B1
Settings: with fa13c_human FAM13C

| Variant | effect of a mutation on the interaction |
| --- | --- |
| R8Q | with no effect |
| S688L | with no effect |

Variants of: B1
Settings: with prp31_human PRPF31, Q8WWY3

| Variant | effect of a mutation on the interaction |
| --- | --- |
| R8Q | with no effect |
| S688L | with no effect |

Variants of: B1
Settings: with snw1_human SNW1, Q13573
snw1_human SNW1, Q13573, sequence (Q13573 whole entry): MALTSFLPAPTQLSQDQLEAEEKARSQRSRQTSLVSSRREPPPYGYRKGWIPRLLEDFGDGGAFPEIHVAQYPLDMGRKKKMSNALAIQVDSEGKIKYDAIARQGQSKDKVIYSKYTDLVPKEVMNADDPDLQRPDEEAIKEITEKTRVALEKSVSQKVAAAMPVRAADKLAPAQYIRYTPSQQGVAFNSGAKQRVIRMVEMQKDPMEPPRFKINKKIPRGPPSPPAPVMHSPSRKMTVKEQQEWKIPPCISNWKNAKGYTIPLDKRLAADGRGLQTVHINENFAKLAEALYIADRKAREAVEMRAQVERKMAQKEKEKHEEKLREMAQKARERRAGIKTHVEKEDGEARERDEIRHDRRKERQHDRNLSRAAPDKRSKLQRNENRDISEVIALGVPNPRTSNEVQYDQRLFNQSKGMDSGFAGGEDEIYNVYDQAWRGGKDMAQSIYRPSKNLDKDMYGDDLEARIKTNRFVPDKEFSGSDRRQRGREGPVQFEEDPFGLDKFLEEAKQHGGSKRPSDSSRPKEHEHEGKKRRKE

| Variant | effect of a mutation on the interaction |
| --- | --- |
| R8Q | with no effect |
| S688L | with no effect |

Variants of: B1
Settings: with sfr1_human SFR1, Q86XK3
sfr1_human SFR1, Q86XK3, sequence (Q86XK3 whole entry): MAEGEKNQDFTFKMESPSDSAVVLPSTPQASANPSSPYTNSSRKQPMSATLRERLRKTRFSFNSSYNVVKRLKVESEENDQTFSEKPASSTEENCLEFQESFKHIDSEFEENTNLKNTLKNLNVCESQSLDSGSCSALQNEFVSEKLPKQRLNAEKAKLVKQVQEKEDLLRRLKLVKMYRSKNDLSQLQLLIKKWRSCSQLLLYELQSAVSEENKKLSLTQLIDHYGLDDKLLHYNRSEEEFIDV

| Variant | effect of a mutation on the interaction |
| --- | --- |
| R8Q | with no effect |
| S688L | with no effect |

Variants of: B1
Settings: with zfy26_human ZFYVE26, Q68DK2

| Variant | effect of a mutation on the interaction |
| --- | --- |
| R8Q | with no effect |
| S688L | with no effect |

Variants of: B1
Settings: with abi2_human ABI2, Q9NYB9
abi2_human ABI2, Q9NYB9, sequence (Q9NYB9 whole entry): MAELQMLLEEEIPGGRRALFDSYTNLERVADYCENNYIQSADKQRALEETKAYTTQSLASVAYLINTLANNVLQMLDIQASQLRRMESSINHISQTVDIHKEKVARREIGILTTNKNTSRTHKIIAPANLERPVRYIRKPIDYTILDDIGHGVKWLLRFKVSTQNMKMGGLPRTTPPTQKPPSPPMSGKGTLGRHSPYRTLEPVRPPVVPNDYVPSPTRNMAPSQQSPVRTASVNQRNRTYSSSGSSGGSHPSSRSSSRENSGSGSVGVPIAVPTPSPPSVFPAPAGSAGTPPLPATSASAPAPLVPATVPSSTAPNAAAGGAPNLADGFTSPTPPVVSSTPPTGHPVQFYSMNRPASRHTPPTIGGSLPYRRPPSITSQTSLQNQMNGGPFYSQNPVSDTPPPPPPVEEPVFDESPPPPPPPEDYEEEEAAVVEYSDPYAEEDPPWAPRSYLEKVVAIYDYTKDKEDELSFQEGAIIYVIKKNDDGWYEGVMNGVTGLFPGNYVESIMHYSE

| Variant | effect of a mutation on the interaction |
| --- | --- |
| R8Q | with no effect |
| S688L | with no effect |

Variants of: B1
Settings: with cc121_human CCDC121, Q6ZUS5
cc121_human CCDC121, Q6ZUS5, sequence (Q6ZUS5 whole entry): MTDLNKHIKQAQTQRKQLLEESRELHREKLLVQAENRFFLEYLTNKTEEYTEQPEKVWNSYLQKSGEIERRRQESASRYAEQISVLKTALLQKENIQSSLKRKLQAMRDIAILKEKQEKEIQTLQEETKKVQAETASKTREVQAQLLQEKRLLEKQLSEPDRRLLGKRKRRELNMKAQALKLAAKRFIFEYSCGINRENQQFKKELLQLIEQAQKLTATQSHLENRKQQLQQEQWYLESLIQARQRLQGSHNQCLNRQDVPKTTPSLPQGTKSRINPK

| Variant | effect of a mutation on the interaction |
| --- | --- |
| R8Q | with no effect |
| S688L | with no effect |

Variants of: B1
Settings: with KRT6A

| Variant | effect of a mutation on the interaction |
| --- | --- |
| R8Q | with no effect |
| S688L | with no effect |

Variants of: B1
Settings: with lca5l_human LCA5L

| Variant | effect of a mutation on the interaction |
| --- | --- |
| M140V | with no effect |

Variants of: B1
Settings: with ccnd3_human CCND3, P30281

| Variant | effect of a mutation on the interaction |
| --- | --- |
| M140V | with no effect |

Variants of: B1
Settings: with cenpu_human CENPU

| Variant | effect of a mutation on the interaction |
| --- | --- |
| M140V | with no effect |

Variants of: B2
Settings: with ttc32_human TTC32, Q5I0X7
ttc32_human TTC32, Q5I0X7, sequence (Q5I0X7 whole entry): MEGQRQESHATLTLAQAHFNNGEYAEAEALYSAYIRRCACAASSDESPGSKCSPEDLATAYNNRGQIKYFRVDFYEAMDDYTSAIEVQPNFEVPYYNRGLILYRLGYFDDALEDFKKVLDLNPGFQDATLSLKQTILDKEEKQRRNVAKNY

| Variant | effect of a mutation on the interaction |
| --- | --- |
| L387F | with no effect |

Variants of: B2
Settings: with ccnc_human CCNC

| Variant | effect of a mutation on the interaction |
| --- | --- |
| L387F | with no effect |

Variants of: B3
Settings: with klc3_human KLC3, Q6P597

| Variant | effect of a mutation on the interaction |
| --- | --- |
| N155T | disrupting interaction strength |

Variants of: B3
Settings: with lipa1_human PPFIA1, Q13136

| Variant | effect of a mutation on the interaction |
| --- | --- |
| N155T | disrupting interaction strength |

Variants of: B3
Settings: with dus12_human DUSP12, Q9UNI6

| Variant | effect of a mutation on the interaction |
| --- | --- |
| N155T | disrupting interaction strength |

Variants of: B4
Settings: with kr103_human KRTAP10-3, P60369

| Variant | effect of a mutation on the interaction |
| --- | --- |
| Q500R | with no effect |
| L155F | with no effect |
| G267R | with no effect |
| N576S | with no effect |

Variants of: B5
Settings: with zsc32_human ZSCAN32, Q9NX65
zsc32_human ZSCAN32, Q9NX65, sequence (Q9NX65 whole entry): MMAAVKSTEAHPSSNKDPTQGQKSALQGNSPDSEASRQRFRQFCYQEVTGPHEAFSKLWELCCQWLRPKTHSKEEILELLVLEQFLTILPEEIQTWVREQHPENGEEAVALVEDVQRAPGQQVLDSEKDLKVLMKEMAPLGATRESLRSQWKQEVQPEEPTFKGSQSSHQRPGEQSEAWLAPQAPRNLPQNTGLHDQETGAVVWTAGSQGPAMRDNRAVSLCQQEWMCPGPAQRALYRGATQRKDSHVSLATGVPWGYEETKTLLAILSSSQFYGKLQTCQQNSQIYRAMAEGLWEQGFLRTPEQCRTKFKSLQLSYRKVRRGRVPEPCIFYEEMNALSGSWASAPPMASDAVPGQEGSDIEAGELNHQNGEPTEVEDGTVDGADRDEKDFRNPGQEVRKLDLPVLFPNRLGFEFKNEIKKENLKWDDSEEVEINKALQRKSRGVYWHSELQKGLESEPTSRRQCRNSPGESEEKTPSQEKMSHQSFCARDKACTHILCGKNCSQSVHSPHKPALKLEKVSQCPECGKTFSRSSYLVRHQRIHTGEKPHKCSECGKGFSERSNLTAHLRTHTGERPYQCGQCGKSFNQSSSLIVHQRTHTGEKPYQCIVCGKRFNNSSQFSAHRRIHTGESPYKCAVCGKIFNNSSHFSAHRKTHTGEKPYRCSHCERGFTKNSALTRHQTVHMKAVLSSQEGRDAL

| Variant | effect of a mutation on the interaction |
| --- | --- |
| L22F | with no effect |
| S33F | with no effect |

Variants of: B5
Settings: with zksc7_human ZKSCAN7, Q9P0L1
zksc7_human ZKSCAN7, Q9P0L1, sequence (Q9P0L1 whole entry): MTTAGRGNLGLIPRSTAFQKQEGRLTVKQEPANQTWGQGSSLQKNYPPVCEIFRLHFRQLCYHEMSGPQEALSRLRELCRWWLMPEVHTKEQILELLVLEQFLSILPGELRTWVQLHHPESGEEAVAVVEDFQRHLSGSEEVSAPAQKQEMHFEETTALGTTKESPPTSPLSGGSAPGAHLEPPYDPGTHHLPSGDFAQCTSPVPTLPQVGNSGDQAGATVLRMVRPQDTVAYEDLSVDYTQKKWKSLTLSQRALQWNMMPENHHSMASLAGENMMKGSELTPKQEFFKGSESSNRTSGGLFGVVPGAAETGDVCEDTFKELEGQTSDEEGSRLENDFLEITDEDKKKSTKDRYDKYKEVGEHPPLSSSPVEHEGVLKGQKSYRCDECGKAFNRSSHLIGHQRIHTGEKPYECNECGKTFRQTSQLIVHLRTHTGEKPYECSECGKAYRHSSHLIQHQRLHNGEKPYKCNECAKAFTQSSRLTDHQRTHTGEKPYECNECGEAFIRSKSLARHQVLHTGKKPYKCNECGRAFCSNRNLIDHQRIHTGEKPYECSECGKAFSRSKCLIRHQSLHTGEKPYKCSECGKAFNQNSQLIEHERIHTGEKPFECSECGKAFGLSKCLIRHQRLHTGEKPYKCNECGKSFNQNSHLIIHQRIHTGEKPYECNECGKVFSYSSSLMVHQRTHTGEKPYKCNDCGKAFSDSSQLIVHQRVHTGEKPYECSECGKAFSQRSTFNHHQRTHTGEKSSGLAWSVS

| Variant | effect of a mutation on the interaction |
| --- | --- |
| L22F | with no effect |
| S33F | with no effect |

Variants of: B5
Settings: with znf24_human ZNF24, P17028
znf24_human ZNF24, P17028, sequence (P17028 whole entry): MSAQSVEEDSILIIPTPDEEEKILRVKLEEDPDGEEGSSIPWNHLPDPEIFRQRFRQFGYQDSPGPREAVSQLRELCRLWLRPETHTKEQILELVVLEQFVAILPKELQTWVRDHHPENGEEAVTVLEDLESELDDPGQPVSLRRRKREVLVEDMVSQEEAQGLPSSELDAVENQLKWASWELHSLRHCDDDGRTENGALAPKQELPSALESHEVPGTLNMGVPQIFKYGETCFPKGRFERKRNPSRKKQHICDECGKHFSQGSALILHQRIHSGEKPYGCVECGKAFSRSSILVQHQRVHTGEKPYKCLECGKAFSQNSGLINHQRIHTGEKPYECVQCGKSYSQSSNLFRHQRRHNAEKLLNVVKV

| Variant | effect of a mutation on the interaction |
| --- | --- |
| L22F | with no effect |
| S33F | with no effect |

Variants of: B5
Settings: with zn496_human ZNF496, Q96IT1

| Variant | effect of a mutation on the interaction |
| --- | --- |
| L22F | with no effect |
| S33F | with no effect |
